We go through 4 proteins from publication PMC9898670, “A solution structure analysis reveals a bent collagen triple helix in the complement activation recognition molecule mannan-binding lectin” (The Journal of Biological Chemistry, 2022).

Data set [1] concerns the molecule itself. Nature of the data set: AUC; sedimentation velocity, 50,000 rpm, 20 °C, 137 mM PBS pH 7.4 or 20 mM L-histidine pH 6.0 in H2O (10 peptides, 0.2-2.5 mg/ml) and 20 mM L-histidine in 2H2O (six peptides, 0.75-4 mg/ml); c(s) analysis with SEDFIT; peptides equilibrated for at least 48 h at room temperature to assemble into triple helices.
Data set [2] concerns the molecule itself. Briefly: circular dichroism; spectra 190-260 nm and melting curves at 226 nm from 0 to 70 °C, average heating rate 0.1 °C/min. (In general: Circular dichroism is the unequal absorption of left and right circularly polarised light.)

Non-standard residues stand in square brackets, D forms with d. Hyp = O=C(O)[C@@H]1C[C@@H](O)CN1

B1: MBL-E (MBL EOG) collagen peptide, Ac-(POG)5-EOGQGLRG-(POG)3-NH2 (peptide)
peptide: Ac-P[Hyp]GP[Hyp]GP[Hyp]GP[Hyp]GP[Hyp]GE[Hyp]GQGLRGP[Hyp]GP[Hyp]GP[Hyp]G-NH2
SMILES: CC(=O)N1CCC[C@H]1C(=O)N1C[C@H](O)C[C@H]1C(=O)NCC(=O)N1CCC[C@H]1C(=O)N1C[C@H](O)C[C@H]1C(=O)NCC(=O)N1CCC[C@H]1C(=O)N1C[C@H](O)C[C@H]1C(=O)NCC(=O)N1CCC[C@H]1C(=O)N1C[C@H](O)C[C@H]1C(=O)NCC(=O)N1CCC[C@H]1C(=O)N1C[C@H](O)C[C@H]1C(=O)NCC(=O)N[C@@H](CCC(=O)O)C(=O)N1C[C@H](O)C[C@H]1C(=O)NCC(=O)N[C@@H](CCC(N)=O)C(=O)NCC(=O)N[C@@H](CC(C)C)C(=O)N[C@@H](CCCNC(=N)N)C(=O)NCC(=O)N1CCC[C@H]1C(=O)N1C[C@H](O)C[C@H]1C(=O)NCC(=O)N1CCC[C@H]1C(=O)N1C[C@H](O)C[C@H]1C(=O)NCC(=O)N1CCC[C@H]1C(=O)N1C[C@H](O)C[C@H]1C(=O)NCC(N)=O
notes: (POG)5 written out; (POG)3 written out; Homotrimeric collagen triple helix; form used in AUC, SAXS and SANS; The CD and DSC runs used a form with one POG triplet fewer
Take B1: the binding result in data set [1] was “binds”.

B2: MBL-N (MBL native) collagen peptide, Ac-(POG)4-EPGQGLRG-(POG)3-NH2 (peptide)
peptide: Ac-P[Hyp]GP[Hyp]GP[Hyp]GP[Hyp]GEPGQGLRGP[Hyp]GP[Hyp]GP[Hyp]G-NH2
SMILES: CC(=O)N1CCC[C@H]1C(=O)N1C[C@H](O)C[C@H]1C(=O)NCC(=O)N1CCC[C@H]1C(=O)N1C[C@H](O)C[C@H]1C(=O)NCC(=O)N1CCC[C@H]1C(=O)N1C[C@H](O)C[C@H]1C(=O)NCC(=O)N1CCC[C@H]1C(=O)N1C[C@H](O)C[C@H]1C(=O)NCC(=O)N[C@@H](CCC(=O)O)C(=O)N1CCC[C@H]1C(=O)NCC(=O)N[C@@H](CCC(N)=O)C(=O)NCC(=O)N[C@@H](CC(C)C)C(=O)N[C@@H](CCCNC(=N)N)C(=O)NCC(=O)N1CCC[C@H]1C(=O)N1C[C@H](O)C[C@H]1C(=O)NCC(=O)N1CCC[C@H]1C(=O)N1C[C@H](O)C[C@H]1C(=O)NCC(=O)N1CCC[C@H]1C(=O)N1C[C@H](O)C[C@H]1C(=O)NCC(N)=O
notes: (POG)4 written out; (POG)3 written out; Homotrimeric collagen triple helix
Consider B2, for which the binding result in data set [2] is reported as “binds”.

B3: MBL-12 (12 triplets) collagen peptide, Ac-(POG)5-EPGQGLRG-(POG)5-NH2 (peptide)
peptide: Ac-P[Hyp]GP[Hyp]GP[Hyp]GP[Hyp]GP[Hyp]GEPGQGLRGP[Hyp]GP[Hyp]GP[Hyp]GP[Hyp]GP[Hyp]G-NH2
SMILES: CC(=O)N1CCC[C@H]1C(=O)N1C[C@H](O)C[C@H]1C(=O)NCC(=O)N1CCC[C@H]1C(=O)N1C[C@H](O)C[C@H]1C(=O)NCC(=O)N1CCC[C@H]1C(=O)N1C[C@H](O)C[C@H]1C(=O)NCC(=O)N1CCC[C@H]1C(=O)N1C[C@H](O)C[C@H]1C(=O)NCC(=O)N1CCC[C@H]1C(=O)N1C[C@H](O)C[C@H]1C(=O)NCC(=O)N[C@@H](CCC(=O)O)C(=O)N1CCC[C@H]1C(=O)NCC(=O)N[C@@H](CCC(N)=O)C(=O)NCC(=O)N[C@@H](CC(C)C)C(=O)N[C@@H](CCCNC(=N)N)C(=O)NCC(=O)N1CCC[C@H]1C(=O)N1C[C@H](O)C[C@H]1C(=O)NCC(=O)N1CCC[C@H]1C(=O)N1C[C@H](O)C[C@H]1C(=O)NCC(=O)N1CCC[C@H]1C(=O)N1C[C@H](O)C[C@H]1C(=O)NCC(=O)N1CCC[C@H]1C(=O)N1C[C@H](O)C[C@H]1C(=O)NCC(=O)N1CCC[C@H]1C(=O)N1C[C@H](O)C[C@H]1C(=O)NCC(N)=O
notes: (POG)5 written out; Homotrimeric collagen triple helix
Consider B3, for which the binding result in data set [2] is reported as “binds”.

B4: T3-785 collagen peptide, Ac-(POG)3-ITGARGLAGPOG-(POG)3-NH2 (peptide)
peptide: Ac-P[Hyp]GP[Hyp]GP[Hyp]GITGARGLAGP[Hyp]GP[Hyp]GP[Hyp]GP[Hyp]G-NH2
SMILES: CC[C@H](C)[C@H](NC(=O)CNC(=O)[C@@H]1C[C@@H](O)CN1C(=O)[C@@H]1CCCN1C(=O)CNC(=O)[C@@H]1C[C@@H](O)CN1C(=O)[C@@H]1CCCN1C(=O)CNC(=O)[C@@H]1C[C@@H](O)CN1C(=O)[C@@H]1CCCN1C(C)=O)C(=O)N[C@H](C(=O)NCC(=O)N[C@@H](C)C(=O)N[C@@H](CCCNC(=N)N)C(=O)NCC(=O)N[C@@H](CC(C)C)C(=O)N[C@@H](C)C(=O)NCC(=O)N1CCC[C@H]1C(=O)N1C[C@H](O)C[C@H]1C(=O)NCC(=O)N1CCC[C@H]1C(=O)N1C[C@H](O)C[C@H]1C(=O)NCC(=O)N1CCC[C@H]1C(=O)N1C[C@H](O)C[C@H]1C(=O)NCC(=O)N1CCC[C@H]1C(=O)N1C[C@H](O)C[C@H]1C(=O)NCC(N)=O)[C@@H](C)O
notes: (POG)3 written out; Homotrimeric collagen triple helix; also called Type III T3-785 peptide
In the case of B4, in data set [1], the binding result is “binds”.
